How the values were obtained:
[1] = molecular target: human CD47 expressed on CHO-K1 cells (human) (UniProt Q08722); experiment: cell doublet formation by flow cytometry; mixed CFSE stained CHO.CD47 and CytoLightRed stained HT1080.4-1BB cells with 5 μg/ml DSP107; doublets as double-positive events; blocking with CD47 mAb or soluble 4-1BBL
[2] = molecular target: 4-1BB on HT1080.4-1BB cells (UniProt Q07011); experiment: as above
[3] = molecular target: Dual Signaling Protein 107 (DSP107) (human) (UniProt P78324); experiment: SEC-MALS; purified DSP107 in solution
[4] = molecular target: human CD47:Fc protein (human) (UniProt Q08722); experiment: ELISA; dual-binding ELISA: human CD47:Fc as capture, DSP107 titrated, human biotinylated-4-1BB as detector; three separately produced batches of DSP107
[5] = molecular target: cynomolgus CD47 (cynomolgus); experiment: SPR; orientation and conditions not given (Table S2, supplementary methods)
[6] = molecular target: human CD47 (surface plasmon resonance) (human) (UniProt Q08722); experiment: as above
Sequence of human CD47 (surface plasmon resonance) (human) (Q08722 19-323): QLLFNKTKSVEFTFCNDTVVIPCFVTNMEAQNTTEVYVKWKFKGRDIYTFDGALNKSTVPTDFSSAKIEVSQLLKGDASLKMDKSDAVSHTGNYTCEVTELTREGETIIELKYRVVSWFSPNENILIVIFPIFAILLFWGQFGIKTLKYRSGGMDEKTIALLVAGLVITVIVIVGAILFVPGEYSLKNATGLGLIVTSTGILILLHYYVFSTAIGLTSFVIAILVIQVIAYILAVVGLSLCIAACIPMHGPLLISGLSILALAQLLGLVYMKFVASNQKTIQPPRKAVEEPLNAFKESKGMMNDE

[7] = molecular target: cynomolgus 4-1BB (cynomolgus); experiment: as above
[8] = molecular target: human 4-1BB (surface plasmon resonance) (human) (UniProt Q07011); experiment: as above
Sequence of human 4-1BB (surface plasmon resonance) (human) (Q07011 24-255): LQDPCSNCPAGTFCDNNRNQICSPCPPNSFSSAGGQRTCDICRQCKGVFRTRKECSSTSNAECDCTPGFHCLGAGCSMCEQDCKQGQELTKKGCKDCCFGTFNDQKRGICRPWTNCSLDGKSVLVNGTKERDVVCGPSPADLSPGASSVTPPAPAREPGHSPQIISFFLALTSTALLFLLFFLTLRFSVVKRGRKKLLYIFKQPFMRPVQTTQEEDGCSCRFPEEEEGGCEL

Sequence of 4-1BB on HT1080.4-1BB cells (Q07011 24-255): as above
Sequence of human CD47 expressed on CHO-K1 cells (human) (Q08722 19-323): as the sequence (Q08722 19-323) above

percent doublets of CHO-K1.CD47 and HT1080.4-1BB cells [1]: 25% | percent doublets of CHO-K1.CD47 and HT1080.4-1BB cells [2]: 25% | stoichiometry N [3]: 3 | EC50 [4]: 940 pM | Kd [5]: 1750 pM | Kd [6]: 1170 pM | Kd [7]: 340 pM | Kd [8]: 700 pM
Substance: Dual Signaling Protein 107 (DSP107) (from UniProt P78324 31-373; P41273 50-254)

— article PMC8919572
